This note sets out measurements from publication PMC5670216, “In vitro selections of mammaglobin A and mammaglobin B aptamers for the recognition of circulating breast tumor cells”.

The target in data set [1] is T1, Mammaglobin B (MGB2), recombinant (UniProt O75556 19-95).
T1 sequence: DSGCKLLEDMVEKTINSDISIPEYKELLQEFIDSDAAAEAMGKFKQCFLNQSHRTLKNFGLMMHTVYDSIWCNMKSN
Briefly: EMSA; aptamer 600 nM, protein 0-220 nM; unit implied by nM axis; EMSA: 50 mM Tris-HCl, 10 mM reduced glutathione, pH 8.0, 1 h at 37 C, 8% native PAGE; transfected-cell flow cytometry: PBS, 5 mM MgCl2, 4 C, 30 min, formaldehyde-fixed cells. Conditions: tags: GST (stated for the SELEX protein).

The target of data set [2] is Mammaglobin A (MGB1), recombinant (UniProt Q13296 19-93). The data set is described as above. Conditions: tags: GST (stated for the SELEX protein).
Chain of Mammaglobin A (MGB1), recombinant (Q13296 19-93): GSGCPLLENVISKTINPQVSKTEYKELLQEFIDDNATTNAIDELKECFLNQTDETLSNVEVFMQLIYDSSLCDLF

B1: MAMB1 (ssDNA)
DNA: CATGCTTACCTATAGTGAACCCAACGTCGAACTGAATCCCGTGTCCTTTGAGAACTGACTCATAC
Take B1: the Kd in data set [1] was 95 ± 7 nM.

B2: MAMA2 (ssDNA)
DNA: CATGCTTACCTATAGTGAACCCGGGACAGAACGTGCGCTTTGAGCTTTGAGAACTGACTCATAC
As for B2, in data set [2], the Kd worked out at 88 ± 6 nM.

By Kd is commonly meant the constant that tells how readily two partners part at equilibrium.
